The assay deals with FGF-1a produced in E. coli (human) (UniProt P05230). Particulars: scale: % band intensity remaining after 0.01% trypsin.

trypsin (enzyme) registered an intensity of the remaining band after trypsin treatment (SDS-denatured electrophoresis, blot) of 6.

Values taken from patent US7005415B1.
